Data reported in patent US6548060 (dated 2003).

Assays:
[1] = molecular target: ASK1 (apoptosis signal-regulating kinase), full-length (UniProt Q99683); assay: cell-based or functional assay
[2] = molecular target: T1, N-terminal 236 aa extension of human glutaminyl-tRNA synthetase, P47897
T1 chain: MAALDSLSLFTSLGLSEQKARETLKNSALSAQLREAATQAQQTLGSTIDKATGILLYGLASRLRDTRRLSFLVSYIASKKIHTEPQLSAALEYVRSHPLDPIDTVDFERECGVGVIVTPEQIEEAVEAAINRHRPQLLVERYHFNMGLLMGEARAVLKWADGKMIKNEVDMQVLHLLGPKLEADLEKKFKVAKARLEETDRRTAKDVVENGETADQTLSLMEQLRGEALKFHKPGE

[3] = molecular target: constitutive active mutant of Daxx, C-terminal 242 aa, Q9UER7
Sequence of constitutive active mutant of Daxx, C-terminal 242 aa, Q9UER7 (Q9UER7 whole entry, looked up, change not shown): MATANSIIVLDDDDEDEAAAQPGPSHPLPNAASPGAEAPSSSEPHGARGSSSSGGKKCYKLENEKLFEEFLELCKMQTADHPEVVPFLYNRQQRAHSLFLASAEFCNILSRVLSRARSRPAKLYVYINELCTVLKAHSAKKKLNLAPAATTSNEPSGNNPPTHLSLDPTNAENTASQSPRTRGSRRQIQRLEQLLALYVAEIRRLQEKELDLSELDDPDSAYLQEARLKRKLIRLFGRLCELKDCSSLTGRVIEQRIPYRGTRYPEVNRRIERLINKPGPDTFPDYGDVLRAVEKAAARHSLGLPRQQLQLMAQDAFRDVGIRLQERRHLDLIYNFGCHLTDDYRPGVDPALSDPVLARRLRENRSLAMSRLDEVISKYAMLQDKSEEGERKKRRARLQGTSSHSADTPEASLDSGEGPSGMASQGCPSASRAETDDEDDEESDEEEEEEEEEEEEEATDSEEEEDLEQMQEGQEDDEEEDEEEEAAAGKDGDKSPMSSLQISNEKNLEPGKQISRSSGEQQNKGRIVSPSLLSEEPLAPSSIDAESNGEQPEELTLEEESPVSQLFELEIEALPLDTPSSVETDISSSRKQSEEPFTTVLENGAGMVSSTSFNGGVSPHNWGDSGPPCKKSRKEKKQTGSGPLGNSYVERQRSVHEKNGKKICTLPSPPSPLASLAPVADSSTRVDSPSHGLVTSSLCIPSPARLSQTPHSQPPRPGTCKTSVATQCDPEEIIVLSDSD

[4] = molecular target: T2, ASK1 (apoptosis signal-regulating kinase), full-length, Q99683
T2 chain: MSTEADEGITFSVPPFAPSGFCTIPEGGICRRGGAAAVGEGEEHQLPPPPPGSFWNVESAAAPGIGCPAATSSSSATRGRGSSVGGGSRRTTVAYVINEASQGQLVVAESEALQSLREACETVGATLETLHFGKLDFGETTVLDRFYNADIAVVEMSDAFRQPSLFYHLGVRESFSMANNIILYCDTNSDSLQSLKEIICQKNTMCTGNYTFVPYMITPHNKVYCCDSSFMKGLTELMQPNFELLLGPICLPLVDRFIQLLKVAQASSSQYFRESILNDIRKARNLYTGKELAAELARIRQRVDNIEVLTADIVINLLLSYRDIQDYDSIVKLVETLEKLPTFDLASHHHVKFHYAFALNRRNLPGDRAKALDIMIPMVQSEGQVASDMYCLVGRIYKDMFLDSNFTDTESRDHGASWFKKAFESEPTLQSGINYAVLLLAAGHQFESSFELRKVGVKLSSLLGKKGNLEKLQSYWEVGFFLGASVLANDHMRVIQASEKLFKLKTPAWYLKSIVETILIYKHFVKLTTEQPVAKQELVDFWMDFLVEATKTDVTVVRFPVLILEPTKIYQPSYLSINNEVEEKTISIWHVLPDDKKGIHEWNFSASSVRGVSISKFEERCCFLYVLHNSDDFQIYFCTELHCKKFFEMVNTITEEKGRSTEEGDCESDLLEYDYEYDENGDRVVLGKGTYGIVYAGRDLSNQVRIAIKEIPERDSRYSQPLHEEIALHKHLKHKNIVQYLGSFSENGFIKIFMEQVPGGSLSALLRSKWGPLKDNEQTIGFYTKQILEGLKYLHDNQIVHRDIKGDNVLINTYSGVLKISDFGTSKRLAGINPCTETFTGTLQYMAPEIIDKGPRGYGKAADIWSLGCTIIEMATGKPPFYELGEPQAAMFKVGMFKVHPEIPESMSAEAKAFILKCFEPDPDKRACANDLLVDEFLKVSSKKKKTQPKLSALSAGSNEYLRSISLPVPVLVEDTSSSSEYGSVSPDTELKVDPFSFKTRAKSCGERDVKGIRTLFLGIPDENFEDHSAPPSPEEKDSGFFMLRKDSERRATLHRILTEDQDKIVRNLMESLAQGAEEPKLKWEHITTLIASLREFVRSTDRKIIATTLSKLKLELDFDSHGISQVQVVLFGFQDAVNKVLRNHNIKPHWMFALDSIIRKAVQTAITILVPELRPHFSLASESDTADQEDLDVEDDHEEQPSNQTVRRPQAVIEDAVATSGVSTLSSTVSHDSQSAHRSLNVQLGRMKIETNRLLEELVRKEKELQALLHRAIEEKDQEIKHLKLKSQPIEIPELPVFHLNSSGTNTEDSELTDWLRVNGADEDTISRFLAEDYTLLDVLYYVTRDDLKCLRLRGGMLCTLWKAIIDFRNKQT

constitutive active mutant of Daxx, C-terminal 242 aa (from UniProt Q9UER7 499-740)
apoptotic cells (HeLa, beta-galactosidase co-transfection, apoptotic morphology) [1]: 11%

B1: ASK1 (apoptosis signal-regulating kinase), full-length (protein)
chain: T2 chain
kinase activity of ASK1 (MBP phosphorylation, immunocomplex kinase assay) [2]: The ASK1 activity was inhibited by the expression of QRS-F and -C but not of QRS -N | ASK1 kinase activity (GST-SEK1 as substrate) [3]: The active mutant of Daxx (Daxx-CA) activated ASK1

B2: C-terminal 539 aa catalytic domain of human glutaminyl-tRNA synthetase (protein)
chain: NYKTPGYVVTPHTMNLLKQHLEITGGQVRTRFPPEPNGILHIGHAKAINFNFGYAKANNGICFLRFDDTNPEKEEAKFFTAICDMVAWLGYTPYKVTYASDYFDQLYAWAVELIRRGLAYVCHQRGEELKGHNTLPSPWRDRPMEESLLLFEAMRKGKFSEGEATLRMKLVMEDGKMDPVAYRVKYTPHHRTGDKWCIYPTYDYTHCLCDSIEHITHSLCTKEFQARRSSYFWLCNALDVYCPVQWEYGRLNLHYAVVSKRKILQLVATGAVRDWDDPRLFTLTALRRRGFPPEAINNFCARVGVTVAQTTMEPHLLEACVRDVLNDTAPRAMAVLESLRVIITNFPAAKSLDIQVPNFPADETKGFHQVPFAPIVFIERTDFKEEPEPGFKRLAWGQPVGLRHTGYVIELQHVVKGPSGCVESLEVTCRRADAGEKPKAFIHWVSQPLMCEVRLYERLFQHKNPEDPTEVPGGFLSDLNLASLHVVDAALVDCSVALAKPFDKFQFERLGYFSVDPDSHQGKLVFNRTVTLKEDPGKV
kinase activity of ASK1 (MBP phosphorylation, immunocomplex kinase assay) [4]: The ASK1 activity was inhibited by the expression of QRS-F and -C but not of QRS -N

B3: human glutaminyl-tRNA synthetase, full-length (protein)
chain: MAALDSLSLFTSLGLSEQKARETLKNSALSAQLREAATQAQQTLGSTIDKATGILLYGLASRLRDTRRLSFLVSYIASKKIHTEPQLSAALEYVRSHPLDPIDTVDFERECGVGVIVTPEQIEEAVEAAINRHRPQLLVERYHFNMGLLMGEARAVLKWADGKMIKNEVDMQVLHLLGPKLEADLEKKFKVAKARLEETDRRTAKDVVENGETADQTLSLMEQLRGEALKFHKPGENYKTPGYVVTPHTMNLLKQHLEITGGQVRTRFPPEPNGILHIGHAKAINFNFGYAKANNGICFLRFDDTNPEKEEAKFFTAICDMVAWLGYTPYKVTYASDYFDQLYAWAVELIRRGLAYVCHQRGEELKGHNTLPSPWRDRPMEESLLLFEAMRKGKFSEGEATLRMKLVMEDGKMDPVAYRVKYTPHHRTGDKWCIYPTYDYTHCLCDSIEHITHSLCTKEFQARRSSYFWLCNALDVYCPVQWEYGRLNLHYAVVSKRKILQLVATGAVRDWDDPRLFTLTALRRRGFPPEAINNFCARVGVTVAQTTMEPHLLEACVRDVLNDTAPRAMAVLESLRVIITNFPAAKSLDIQVPNFPADETKGFHQVPFAPIVFIERTDFKEEPEPGFKRLAWGQPVGLRHTGYVIELQHVVKGPSGCVESLEVTCRRADAGEKPKAFIHWVSQPLMCEVRLYERLFQHKNPEDPTEVPGGFLSDLNLASLHVVDAALVDCSVALAKPFDKFQFERLGYFSVDPDSHQGKLVFNRTVTLKEDPGKV
ASK1 kinase activity enhanced by Daxx-CA (GST-SEK1 as substrate) [4]: QRS inhibited the ASK1 activity enhanced by Daxx | kinase activity of ASK1 (MBP phosphorylation, immunocomplex kinase assay) [4]: The ASK1 activity was inhibited by the expression of QRS-F and -C but not of QRS -N
